Measurements taken from the RNAGym collection of RNA variant scans (doi:10.1101/gr.219683.116).

B1: mRNA-splicing (parent)
chain: AGUUGCUGCUGGGAGCUCCAGCACAGUGAAAUGGACAGAAGGGCAGAGCAA

Variants of: B1
Experiment: exon inclusion enrichment index; higher = more inclusion; WT1 exon 5 minigene, HEK293

Row | Variant | exon inclusion enrichment index
1 | G5U G8U C9U G11A G12C | 0.0306
2 | G5U G8U C9U G11A G12U | 0.00501
3 | G5U G8U C9U G11A G12A | 0.00894
4 | G5U G8U C9U C24U A25U | 0.127
5 | G5U G8U C9U C24U A25G | 0.363
6 | G5U G8U C9U C24U A25C | 0.987
7 | G5U G8U C9U C44G A45U | 0.0543
8 | G5U G8U C9U C44G A45C | 0.346
9 | G5U G8U C9U C44G A45G | 0.0217
10 | G5U G8U C9U A45U | 0.21
11 | G5U G8U C9U A45G | 0.366
12 | G5U G8U C9U A45C | 0.201
13 | G5U G8U C9U C22A A23U | 0.0576
14 | G5U G8U C9U C22A A23C | 0.435
15 | G5U G8U C9U C22A A23G | 0.141
16 | G5U G8U C9U C36U A37U | 0.081
17 | G5U G8U C9U C36U A37G | 0.114
18 | G5U G8U C9U C36U A37C | 0.0658
19 | G5U G8U C9U C18U C19U | 0.000815
20 | G5U G8U C9U C18U C19G | 0.0199
21 | G5U G8U C9U C18U C19A | 0.00338
22 | G5U G8U C9U C24A A25G | 0.175
23 | G5U G8U C9U C24A A25U | 0.149
24 | G5U G8U C9U C24A A25C | 0.849

Row | Variant | exon inclusion enrichment index
25 | G5U G8U C9U C18A C19A | 0.00397
26 | G5U G8U C9U C18A C19U | 0.0019
27 | G5U G8U C9U C18A C19G | 0.00406
28 | G5U G8U C9U G13U A14G | 0.0118
29 | G5U G8U C9U G13U A14C | 0.0727
30 | G5U G8U C9U C44U A45C | 0.215
31 | G5U G8U C9U C44U A45G | 0.043
32 | G5U G8U C9U C44U A45U | 0.0921
33 | G5U G8U C9U G12C G13A | 0.0253
34 | G5U G8U C9U G12C G13C | 0.00507
35 | G5U G8U C9U G12C G13U | 0.0014
36 | G5U G8U C9U C24A | 0.116
37 | G5U G8U C9U C24G | 0.199
38 | G5U G8U C9U C24U | 0.0331
39 | G5U G8U C9U C19G | 0.0649
40 | G5U G8U C9U C19A | 0.0498
41 | G5U G8U C9U C19U | 0.00467
42 | G5U G8U C9U A47G G48U | 0.00268
43 | G5U G8U C9U A47G G48C | 0.0267
44 | G5U G8U C9U A47G G48A | 0.0435
45 | G5U G8U C9U G12A G13U | 0.000463
46 | G5U G8U C9U G12A G13C | 0.0118
47 | G5U G8U C9U G12A G13A | 0.0133
48 | G5U G8U C9U A45C G46A | 0.056

Row | Variant | exon inclusion enrichment index
49 | G5U G8U C9U A45C G46U | 0.0571
50 | G5U G8U C9U A45C G46C | 0.0849
51 | G5U G8U C9U A40U G41C | 0.508
52 | G5U G8U C9U A40U G41U | 0.0547
53 | G5U G8U C9U A40U G41A | 0.00332
54 | G5U G8U C9U G13C A14C | 0.063
55 | G5U G8U C9U G13C A14G | 0.2
56 | G5U G8U C9U G13C A14U | 0.1
57 | G5U G8U C9U A45U G46C | 0.11
58 | G5U G8U C9U A45U G46U | 0.0271
59 | G5U G8U C9U A45U G46A | 0.0906
60 | G5U G8U C9U C36A | 0.0987
61 | G5U G8U C9U C36G | 0.0708
62 | G5U G8U C9U C36U | 0.0293
63 | G5U G8U C9U C44U | 0.0292
64 | G5U G8U C9U C44A | 0.454
65 | G5U G8U C9U C44G | 0.278
66 | G5U G8U C9U A39C A40U | 0.141
67 | G5U G8U C9U A39C A40C | 0.321
68 | G5U G8U C9U A39C A40G | 0.162
69 | G5U G8U C9U A47U G48U | 0.143
70 | G5U G8U C9U A47U G48C | 0.0643
71 | G5U G8U C9U A47U G48A | 0.0727
72 | G5U G8U C9U G13C | 0.0102

Row | Variant | exon inclusion enrichment index
73 | G5U G8U C9U G13U | 0.00294
74 | G5U G8U C9U G13A | 0.0771
75 | G5U G8U C9U A47U | 0.115
76 | G5U G8U C9U A47G | 0.0159
77 | G5U G8U C9U A47C | 0.283
78 | G5U G8U C9U C22G | 0.183
79 | G5U G8U C9U C22U | 0.095
80 | G5U G8U C9U C22A | 0.117
81 | G5U G8U C9U A39U A40U | 0.0352
82 | G5U G8U C9U A39U A40G | 0.0207
83 | G5U G8U C9U A39U A40C | 0.287
84 | G5U G8U C9U C44A A45U | 0.41
85 | G5U G8U C9U C44A A45G | 0.326
86 | G5U G8U C9U C44A A45C | 0.576
87 | G5U G8U C9U A45G G46U | 0.0933
88 | G5U G8U C9U A45G G46C | 0.262
89 | G5U G8U C9U A45G G46A | 0.672
90 | G5U G8U C9U C36G A37U | 0.0469
91 | G5U G8U C9U C36G A37C | 0.0336
92 | G5U G8U C9U C36G A37G | 0.0302
93 | G5U G8U C9U A39G A40G | 0.00566
94 | G5U G8U C9U A39G A40C | 0.128
95 | G5U G8U C9U A39G A40U | 0.00232
96 | G5U G8U C9U C36A A37G | 0.0549

Row | Variant | exon inclusion enrichment index
97 | G5U G8U C9U C36A A37C | 0.21
98 | G5U G8U C9U C36A A37U | 0.0263
99 | G5U G8U C9U G11A | 0.0224
100 | G5U G8U C9U G11C | 0.297
101 | G5U G8U C9U G11U | 0.144
102 | G5U G8U C9U C18U | 0.0536
103 | G5U G8U C9U C18A | 0.0931
104 | G5U G8U C9U C18G | 0.139
105 | G5U G8U C9U C24G A25G | 0.0358
106 | G5U G8U C9U C24G A25C | 0.663
107 | G5U G8U C9U C24G A25U | 0.208
108 | G5U G8U C9U A40C G41U | 0.079
109 | G5U G8U C9U A40C G41A | 0.0439
110 | G5U G8U C9U A40C G41C | 0.711
111 | G5U G8U C9U G11C G12U | 0.0163
112 | G5U G8U C9U G11C G12C | 0.0331
113 | G5U G8U C9U G11C G12A | 0.0135
114 | G5U G8U C9U G13A A14U | 0.349
115 | G5U G8U C9U G13A A14G | 0.152
116 | G5U G8U C9U G13A A14C | 0.61
117 | G5U G8U C9U A39G | 0.0522
118 | G5U G8U C9U A39C | 0.0249
119 | G5U G8U C9U A39U | 0.00188
120 | G5U G8U C9U C16A | 0.141

Row | Variant | exon inclusion enrichment index
121 | G5U G8U C9U C16G | 0.0374
122 | G5U G8U C9U C16U | 0.128
123 | G5U G8U C9U C19A A20G | 0.00554
124 | G5U G8U C9U C19A A20U | 0.0164
125 | G5U G8U C9U C19A A20C | 0.0372
126 | G5U G8U C9U C19G A20G | 0.0362
127 | G5U G8U C9U C19G A20C | 0.13
128 | G5U G8U C9U C19G A20U | 0.14
129 | G5U G8U C9U C16A U17G | 0.0387
130 | G5U G8U C9U C16A U17C | 0.0818
131 | G5U G8U C9U C16A U17A | 0.0994
132 | G5U G8U C9U G11U G12A | 0.00214
133 | G5U G8U C9U G11U G12C | 0.0157
134 | G5U G8U C9U G11U G12U | 0.00578
135 | G5U G8U C9U C22U A23C | 0.0522
136 | G5U G8U C9U C22U A23U | 0.0443
137 | G5U G8U C9U C22U A23G | 0.109
138 | G5U G8U C9U G12A | 0.0372
139 | G5U G8U C9U G12C | 0.0449
140 | G5U G8U C9U G12U | 0.0166
141 | G5U G8U C9U C19U A20U | 0.0205
142 | G5U G8U C9U C19U A20C | 0.0318
143 | G5U G8U C9U C19U A20G | 0.0101
144 | G5U G8U C9U C16G U17A | 0.115

Row | Variant | exon inclusion enrichment index
145 | G5U G8U C9U C16G U17C | 0.0319
146 | G5U G8U C9U C16G U17G | 0.00571
147 | G5U G8U C9U A40U | 0.0931
148 | G5U G8U C9U A40C | 0.385
149 | G5U G8U C9U A40G | 0.0867
150 | G5U G8U C9U C16U U17C | 0.0384
151 | G5U G8U C9U C16U U17G | 0.0101
152 | G5U G8U C9U C16U U17A | 0.0519
153 | G5U G8U C9U C18G C19U | 0.00531
154 | G5U G8U C9U C18G C19G | 0.195
155 | G5U G8U C9U C18G C19A | 0.159
156 | G5U G8U C9U C22G A23U | 0.0132
157 | G5U G8U C9U C22G A23G | 0.0211
158 | G5U G8U C9U C22G A23C | 0.0377
159 | G5U G8U C9U A47C G48A | 0.0919
160 | G5U G8U C9U A47C G48U | 0.134
161 | G5U G8U C9U A47C G48C | 0.139
162 | G5U G8U C9U G12U G13C | 0.00926
163 | G5U G8U C9U G12U G13U | 0.000363
164 | G5U G8U C9U G12U G13A | 0.000421
165 | G5U G8U C9U A40G G41U | 0.107
166 | G5U G8U C9U A40G G41A | 0.0719
167 | G5U G8U C9U A40G G41C | 0.76
